Experimental data: IntAct's records for PubMed 24805197

B1: Sarcoplasmic reticulum histidine-rich calcium-binding protein (Homo sapiens), P23327 (parent)
chain: MGHHRPWLHASVLWAGVASLLLPPAMTQQLRGDGLGFRNRNNSTGVAGLSEEASAELRHHLHSPRDHPDENKDVSTENGHHFWSHPDREKEDEDVSKEYGHLLPGHRSQDHKVGDEGVSGEEVFAEHGGQARGHRGHGSEDTEDSAEHRHHLPSHRSHSHQDEDEDEVVSSEHHHHILRHGHRGHDGEDDEGEEEEEEEEEEEEASTEYGHQAHRHRGHGSEEDEDVSDGHHHHGPSHRHQGHEEDDDDDDDDDDDDDDDDVSIEYRHQAHRHQGHGIEEDEDVSDGHHHRDPSHRHRSHEEDDNDDDDVSTEYGHQAHRHQDHRKEEVEAVSGEHHHHVPDHRHQGHRDEEEDEDVSTERWHQGPQHVHHGLVDEEEEEEEITVQFGHYVASHQPRGHKSDEEDFQDEYKTEVPHHHHHRVPREEDEEVSAELGHQAPSHRQSHQDEETGHGQRGSIKEMSHHPPGHTVVKDRSHLRKDDSEEEKEKEEDPGSHEEDDESSEQGEKGTHHGSRDQEDEEDEEEGHGLSLNQEEEEEEDKEEEEEEEDEERREERAEVGAPLSPDHSEEEEEEEEGLEEDEPRFTIIPNPLDRREEAGGASSEEESGEDTGPQDAQEYGNYQPGSLCGYCSFCNRCTECESCHCDEENMGEHCDQCQHCQFCYLCPLVCETVCAPGSYVDYFSSSLYQALADMLETPEP

Variants of: B1
Details: with ryr2_mouse Ryr2, E9Q401
ryr2_mouse Ryr2, E9Q401, sequence (E9Q401 whole entry): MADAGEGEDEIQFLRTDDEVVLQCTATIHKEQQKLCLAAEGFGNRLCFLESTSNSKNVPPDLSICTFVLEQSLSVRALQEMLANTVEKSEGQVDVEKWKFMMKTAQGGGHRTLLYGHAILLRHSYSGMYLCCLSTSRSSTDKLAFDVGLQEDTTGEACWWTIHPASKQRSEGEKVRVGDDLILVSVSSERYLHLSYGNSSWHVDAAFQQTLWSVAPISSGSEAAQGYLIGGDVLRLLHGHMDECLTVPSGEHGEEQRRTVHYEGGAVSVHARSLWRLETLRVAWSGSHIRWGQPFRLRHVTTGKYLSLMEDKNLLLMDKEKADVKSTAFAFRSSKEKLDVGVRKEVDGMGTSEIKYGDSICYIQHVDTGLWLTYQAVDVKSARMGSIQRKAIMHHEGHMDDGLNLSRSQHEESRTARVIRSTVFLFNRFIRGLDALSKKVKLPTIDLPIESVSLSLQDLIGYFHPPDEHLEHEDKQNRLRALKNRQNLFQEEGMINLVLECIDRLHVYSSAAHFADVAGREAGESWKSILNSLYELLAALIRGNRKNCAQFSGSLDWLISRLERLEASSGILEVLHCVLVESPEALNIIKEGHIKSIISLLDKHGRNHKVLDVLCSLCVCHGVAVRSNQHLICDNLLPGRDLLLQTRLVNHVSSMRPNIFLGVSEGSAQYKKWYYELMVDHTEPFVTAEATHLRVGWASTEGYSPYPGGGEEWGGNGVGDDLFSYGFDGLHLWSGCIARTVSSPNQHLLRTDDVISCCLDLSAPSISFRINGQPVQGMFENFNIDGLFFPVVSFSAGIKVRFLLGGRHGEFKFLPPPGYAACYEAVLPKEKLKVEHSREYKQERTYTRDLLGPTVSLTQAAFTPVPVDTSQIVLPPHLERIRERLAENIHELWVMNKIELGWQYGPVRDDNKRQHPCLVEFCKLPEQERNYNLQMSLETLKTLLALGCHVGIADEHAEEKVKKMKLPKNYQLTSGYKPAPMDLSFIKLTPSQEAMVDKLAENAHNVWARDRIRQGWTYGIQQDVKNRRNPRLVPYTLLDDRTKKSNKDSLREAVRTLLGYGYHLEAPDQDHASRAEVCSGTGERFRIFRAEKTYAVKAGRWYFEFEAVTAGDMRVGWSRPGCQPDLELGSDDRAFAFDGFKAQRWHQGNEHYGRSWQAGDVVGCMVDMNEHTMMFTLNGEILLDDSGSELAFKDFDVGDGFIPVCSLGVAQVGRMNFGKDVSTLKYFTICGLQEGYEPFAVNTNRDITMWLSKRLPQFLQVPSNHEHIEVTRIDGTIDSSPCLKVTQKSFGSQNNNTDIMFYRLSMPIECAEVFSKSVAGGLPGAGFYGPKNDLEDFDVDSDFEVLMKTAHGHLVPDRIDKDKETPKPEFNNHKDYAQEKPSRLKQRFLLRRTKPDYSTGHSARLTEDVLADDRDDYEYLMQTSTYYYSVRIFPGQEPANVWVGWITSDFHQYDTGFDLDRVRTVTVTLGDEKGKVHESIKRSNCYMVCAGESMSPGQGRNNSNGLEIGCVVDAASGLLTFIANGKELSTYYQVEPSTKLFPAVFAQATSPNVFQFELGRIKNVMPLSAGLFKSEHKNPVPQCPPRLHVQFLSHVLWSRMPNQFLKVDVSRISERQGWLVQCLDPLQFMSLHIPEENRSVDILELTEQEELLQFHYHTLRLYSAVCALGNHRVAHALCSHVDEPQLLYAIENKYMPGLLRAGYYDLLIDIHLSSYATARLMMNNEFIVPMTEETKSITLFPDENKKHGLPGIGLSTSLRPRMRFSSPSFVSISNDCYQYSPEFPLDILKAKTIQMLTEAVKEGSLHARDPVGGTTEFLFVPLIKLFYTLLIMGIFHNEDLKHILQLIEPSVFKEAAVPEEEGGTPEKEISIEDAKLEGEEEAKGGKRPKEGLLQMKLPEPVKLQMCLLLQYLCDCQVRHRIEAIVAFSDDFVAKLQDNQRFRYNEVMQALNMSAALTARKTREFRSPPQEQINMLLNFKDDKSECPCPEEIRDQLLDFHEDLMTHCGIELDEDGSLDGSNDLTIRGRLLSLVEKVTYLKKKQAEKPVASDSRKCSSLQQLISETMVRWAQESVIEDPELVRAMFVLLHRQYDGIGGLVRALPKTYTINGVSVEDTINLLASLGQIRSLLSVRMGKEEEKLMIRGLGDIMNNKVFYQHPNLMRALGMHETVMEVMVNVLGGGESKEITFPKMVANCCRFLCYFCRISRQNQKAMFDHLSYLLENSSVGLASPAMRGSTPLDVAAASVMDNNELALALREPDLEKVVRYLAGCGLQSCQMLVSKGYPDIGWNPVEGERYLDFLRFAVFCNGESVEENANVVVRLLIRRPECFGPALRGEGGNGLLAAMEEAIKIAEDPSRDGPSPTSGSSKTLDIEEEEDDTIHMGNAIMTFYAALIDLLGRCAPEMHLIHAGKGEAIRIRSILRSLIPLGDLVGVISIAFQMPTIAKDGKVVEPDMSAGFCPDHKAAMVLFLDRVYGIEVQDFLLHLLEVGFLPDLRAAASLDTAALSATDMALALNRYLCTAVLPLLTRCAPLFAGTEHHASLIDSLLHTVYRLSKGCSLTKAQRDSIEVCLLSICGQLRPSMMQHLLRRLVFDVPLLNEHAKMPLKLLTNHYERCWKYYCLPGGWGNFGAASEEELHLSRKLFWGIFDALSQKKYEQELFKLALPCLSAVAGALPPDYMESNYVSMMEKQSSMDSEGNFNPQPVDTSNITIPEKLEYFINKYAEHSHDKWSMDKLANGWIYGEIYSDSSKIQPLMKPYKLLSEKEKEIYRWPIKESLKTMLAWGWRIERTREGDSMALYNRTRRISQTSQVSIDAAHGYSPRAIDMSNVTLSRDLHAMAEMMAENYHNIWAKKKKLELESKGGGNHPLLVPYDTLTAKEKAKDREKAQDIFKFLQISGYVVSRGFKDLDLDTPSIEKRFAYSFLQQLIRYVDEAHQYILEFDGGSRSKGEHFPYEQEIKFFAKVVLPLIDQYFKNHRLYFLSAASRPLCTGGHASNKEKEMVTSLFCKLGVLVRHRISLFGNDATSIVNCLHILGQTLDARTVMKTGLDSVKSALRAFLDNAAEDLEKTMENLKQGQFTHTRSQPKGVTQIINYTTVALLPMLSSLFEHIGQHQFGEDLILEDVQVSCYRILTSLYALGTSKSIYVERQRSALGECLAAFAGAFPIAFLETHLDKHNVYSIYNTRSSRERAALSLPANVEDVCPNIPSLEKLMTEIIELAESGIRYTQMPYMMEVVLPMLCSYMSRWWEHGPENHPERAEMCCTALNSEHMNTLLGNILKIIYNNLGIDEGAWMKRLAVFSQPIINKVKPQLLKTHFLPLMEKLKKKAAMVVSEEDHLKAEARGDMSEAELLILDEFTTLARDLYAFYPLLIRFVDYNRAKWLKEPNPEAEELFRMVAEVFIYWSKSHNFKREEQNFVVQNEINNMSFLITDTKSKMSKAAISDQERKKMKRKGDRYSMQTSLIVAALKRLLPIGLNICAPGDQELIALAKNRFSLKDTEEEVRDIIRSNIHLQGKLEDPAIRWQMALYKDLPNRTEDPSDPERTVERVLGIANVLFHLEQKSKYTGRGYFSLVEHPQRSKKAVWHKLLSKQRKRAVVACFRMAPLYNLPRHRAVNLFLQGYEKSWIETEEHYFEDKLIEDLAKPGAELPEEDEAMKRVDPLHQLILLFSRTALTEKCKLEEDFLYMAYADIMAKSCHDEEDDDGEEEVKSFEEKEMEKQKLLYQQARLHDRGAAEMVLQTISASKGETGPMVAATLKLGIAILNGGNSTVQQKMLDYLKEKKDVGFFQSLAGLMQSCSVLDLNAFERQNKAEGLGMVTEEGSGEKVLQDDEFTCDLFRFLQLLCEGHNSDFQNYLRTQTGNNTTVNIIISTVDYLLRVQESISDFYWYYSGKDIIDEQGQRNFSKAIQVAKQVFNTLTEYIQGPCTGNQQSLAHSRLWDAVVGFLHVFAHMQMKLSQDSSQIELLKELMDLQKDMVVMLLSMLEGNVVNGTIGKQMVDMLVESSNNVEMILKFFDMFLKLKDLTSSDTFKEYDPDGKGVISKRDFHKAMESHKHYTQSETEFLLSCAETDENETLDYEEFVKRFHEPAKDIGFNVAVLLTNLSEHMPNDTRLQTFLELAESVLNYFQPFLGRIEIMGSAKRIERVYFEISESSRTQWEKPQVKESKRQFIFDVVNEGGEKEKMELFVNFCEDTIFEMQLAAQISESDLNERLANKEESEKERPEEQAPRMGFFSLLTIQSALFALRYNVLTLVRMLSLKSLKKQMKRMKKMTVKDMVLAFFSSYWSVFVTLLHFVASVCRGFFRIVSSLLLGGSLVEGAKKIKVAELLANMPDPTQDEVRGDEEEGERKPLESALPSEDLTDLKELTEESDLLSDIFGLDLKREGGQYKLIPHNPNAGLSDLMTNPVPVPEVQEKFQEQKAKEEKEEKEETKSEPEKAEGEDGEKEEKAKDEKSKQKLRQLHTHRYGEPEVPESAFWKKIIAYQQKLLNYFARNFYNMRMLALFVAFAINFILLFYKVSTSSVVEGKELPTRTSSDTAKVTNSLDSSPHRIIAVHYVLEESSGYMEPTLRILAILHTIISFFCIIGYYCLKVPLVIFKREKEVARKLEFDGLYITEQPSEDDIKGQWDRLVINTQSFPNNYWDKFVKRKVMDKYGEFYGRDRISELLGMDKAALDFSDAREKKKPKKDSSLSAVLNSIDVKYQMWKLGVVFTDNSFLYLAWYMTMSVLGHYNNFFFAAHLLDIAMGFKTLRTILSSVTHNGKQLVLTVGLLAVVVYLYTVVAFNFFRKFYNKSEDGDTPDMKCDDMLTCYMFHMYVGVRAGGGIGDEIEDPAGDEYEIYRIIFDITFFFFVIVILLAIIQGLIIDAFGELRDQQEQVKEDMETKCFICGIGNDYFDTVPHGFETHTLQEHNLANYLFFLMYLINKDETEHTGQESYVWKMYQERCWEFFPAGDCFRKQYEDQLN

| Variant | effect of a mutation on the interaction |
| --- | --- |
| S96A | decreasing interaction strength |
